The values below come from paper PMC12871931, “The importin‐alpha superfamily engages in ethylene signaling by shuttling [sequence] INSENSITIVE 2 from the endoplasmic reticulum to the nucleus” (The Febs Journal, 2025).

One assay has as its target ΔIBB_IMPα1 (Arabidopsis thaliana, UniProt Q96321). Type of assay: binding. The source says:
Next, we used biolayer interferometry (BLI) with an Octet K2 instrument (Fortè Bio, Dallas, USA) to substantiate and further delineate the binding interactions between the IMPα superfamily and the EIN2‐NLS motif. BLI measures slight changes in reflected light at a sensor surface upon the formation of molecular complexes. Specifically, it monitors interference patterns of white light, which are reflected from two different surfaces: an internal reference layer and a layer of biomolecules immobilized on a biosensor tip.
In these binding assays, IMPα1 lacking the IBB domain (ΔIBB_IMPα1) and IMPα4 were selected as representatives of the IMPα superfamily. Prior to their interaction studies with different EIN2 CEND‐NLS probes, both importins were biotinylated with the Biotin‐PEG4‐NHS ester Protein Labeling Kit from Jena Bioscience (Jena, Germany) and immobilized onto streptavidin‐coated biosensor tips (Fig. 5).
Curve fitting of the BLI sensorgrams was tested with different binding models. […] This model assumes analyte binding at two independent ligand sites at the IMPα immobilized on the biosensor surface. Furthermore, each ligand site binds the analyte independently and with a different rate constant. […]

For another assay, the system named is EIN2C^479–1294. Nature of the assay: In planta FLIM‐FRET, EIN2C^479–1294‐CER donor, IMPα‐YFP acceptors. It counts as cell-based, Arabidopsis thaliana. The settings on record: N. benthamiana epidermal leaf cells; for average fluorescence lifetime of the EIN2C^479‐1294‐CER donor: co‐expression, vs donor only, Kruskal‐Wallis and Dunn's test, 18–20 measurements. The source says: To further investigate the interaction between members of the IMPα superfamily and EIN2 in planta, we used in vivo fluorescence lifetime microscopy and Förster's resonance energy transfer (FLIM‐FRET). Accordingly, the C‐terminal part of EIN2 (EIN2C^479–1294) was fused to the fluorescent protein Cerulean (CER), serving as a donor, and the IMPα isoforms (IMPα1‐7) were fused to YELLOW FL[…] (YFP), serving as acceptors.
A modified version of a previously described procedure was used for the transient transformation of N. benthamiana. An overnight culture of agrobacteria was inoculated in DYT and incubated at 28°C one day before infiltration. Bacteria were then centrifuged at 4000 g and resuspended in infiltration medium (5% (w/v) Saccharose; 0.01% (w/v) MgSO4; 0.01% (w/v) Glucose; Acetosyringone 450 μM) to an OD600 of 0.4–0.8. Resuspended bacteria were kept on ice for 1–2 h prior to infiltration. For co‐infiltration, bacteria solutions were mixed in equal quantities, and Agrobacterium strain GV3101:p19 expressing the p19 silencing inhibitor was added to each mix. Infiltration of the bacteria solution was performed with a 1 mL syringe onto the abaxial side of 3‐ to 4‐week‐old plants. Plants were kept under continuous light before microscopy analysis. For ß‐estradiol inducible constructs, plants were sprayed on the abaxial side of infiltrated leaves with an estradiol solution (ß‐estradiol 20 μM; Tween‐20 0.1% (w/v)) prior to imaging.
Fluorescence lifetime imaging was performed using a protocol described previously. Fluorescence lifetime was measured at a Zeiss LSM 780 confocal microscope (40× water immersion objective, Zeiss C‐PlanApo, NA 1.2). For TCSPC, a PicoQuant Hydra Harp 400 (PicoQuant, Berlin, Germany) was used. Photon counting was performed with a picosecond resolution. Cerulean was excited with a 440 nm ([…], 32 MHz, PicoQuant, Berlin, Germany) pulsed polarized laser. Laser power at the objective lens was adjusted to ~2.2 μW in N. benthamiana experiments. […] Photons were detected in both donor and acceptor channels simultaneously with Tau‐SPADs (PicoQuant, Berlin, Germany). […] Internal response functions for each laser were determined by measuring the fluorescence decay of quenched Atto425 in saturated KI, using the same hardware settings as for the FRET pair of interest. Fluorescence lifetime images were acquired in the cytosol, ER, or nucleus in donor‐only samples and samples with IMPα1‐4 and IMPα7. […]
The fluorescence decays were fitted using a previously reported method with minor modifications.
The fluorescence decays of selected ROIs in the FLIM image were analyzed with the SymPhoTime FLIM analysis software (SymPhoTime 64, version 2.4; PicoQuant, Berlin, Germany). […]

ΔIBB_IMPα1, sequence (Q96321 whole entry, stated change not applied): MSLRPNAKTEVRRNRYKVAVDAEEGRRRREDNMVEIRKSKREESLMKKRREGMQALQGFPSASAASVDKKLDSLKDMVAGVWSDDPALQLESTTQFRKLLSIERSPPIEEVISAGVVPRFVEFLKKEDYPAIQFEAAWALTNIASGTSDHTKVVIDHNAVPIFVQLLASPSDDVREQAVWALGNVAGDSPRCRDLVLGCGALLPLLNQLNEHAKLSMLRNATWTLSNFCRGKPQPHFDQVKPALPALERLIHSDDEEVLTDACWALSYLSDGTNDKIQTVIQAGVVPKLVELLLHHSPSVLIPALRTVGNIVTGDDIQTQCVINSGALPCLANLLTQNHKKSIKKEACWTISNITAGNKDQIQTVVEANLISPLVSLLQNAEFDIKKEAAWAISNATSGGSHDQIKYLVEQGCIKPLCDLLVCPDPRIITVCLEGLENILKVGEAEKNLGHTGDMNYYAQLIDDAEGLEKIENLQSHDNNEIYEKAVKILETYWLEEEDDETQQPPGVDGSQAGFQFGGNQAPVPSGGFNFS

B1: GB1‐AtEIN2C^1215–1281: CEND construct containing a GB1‐tag to enhance solubility, produced recombinantly in E. coli (protein)
chain: {GB1 tag}-KGKCTTAVTLLDLIKDVEMAISCRKGRTGTAAGDVAFPKGKENLASVLKRYKRRLSNKPVGMNQDGP
modifications: not fully specified
notes: CEND construct containing a GB1‐tag to enhance solubility, produced recombinantly in E. coli
In the case of B1, the Hill coefficient (in general, a measure of the steepness of the concentration-response curve) with ΔIBB_IMPα1 (BLI dose response, ΔIBB_IMPα1) is reported as 0.94 ± 0.06. Further, in the assay with ΔIBB_IMPα1 (BLI, ΔIBB_IMPα1 biotinylated on streptavidin biosensor (15 μM in 100 mM Tris pH 7.0, 100 mM KCl, 0.01% Tween 20), room temperature, association 300 s, dissociation 300 s, 1:2 heterogeneous ligand model, n = 3, read-out: K d + SD), the Kd was determined as 8.8 ± 1.1 µM.

B2: IMPα7‐YFP: A. thaliana IMPα7 fused to YFP, FRET acceptor (protein)
chain: MKGGETMSVRRSGYKAVVDGVGGRRRREDDMVEIRKAKREESLLKKRREALPHSPSADSLDQKLISCIWSDERDLLIEATTQIRTLLCGEMFNVRVEEVIQAGLVPRFVEFLTWDDSPQLQFEAAWALTNIASGTSENTEVVIDHGAVAILVRLLNSPYDVVREQVVWALGNISGDSPRCRDIVLGHAALPSLLLQLNHGAKLSMLVNAAWTLSNLCRGKPQPPFDQVSAALPALAQLIRLDDKELLAYTCWALVYLSDGSNEKIQAVIEANVCARLIGLSIHRSPSVITPALRTIGNIVTGNDSQTQHIIDLQALPCLVNLLRGSYNKTIRKEACWTVSNITAGCQSQIQAVFDADICPALVNLLQNSEGDVKKEAAWAICNAIAGGSYKQIMFLVKQECIKPLCDLLTCSDTQLVMVCLEALKKILKVGEVFSSRHAEGIYQCPQTNVNPHAQLIEEAEGLEKIEGLQSHENNDIYETAVKILETYWMEEEEEEDQEQQDMIYFPVDNFANMPTSSGTLSEMHCGP
modifications: left off: YFP, end not stated, kept
notes: A. thaliana IMPα7 fused to YFP, FRET acceptor
On to B2, for which the “average fluorescence lifetime of the EIN2C^479‐1294‐CER donor” value (“average fluorescence lifetime” for short) in the assay with EIN2C^479–1294 is reported as “significant reduction”.

B3: IMPα6‐YFP: A. thaliana IMPα6 fused to YFP, FRET acceptor (protein)
chain: MSYKPSAKTEVRRNRYKVSVDADEGRRRREDNMVEIRKNKREENLQKKRREGFNPSMASQPGQDFSSSLPTETRLENIQQMIAGVMSEDRDLQLEATASFRRLLSIERNPPINEVVQSGVVPHIVQFLSRDDFTQLQFEAAWALTNIASGTSENTRVIIDSGAVPLFVKLLSSASEEVREQAVWALGNVAGDSPKCRDHVLSCEAMMSLLAQFHEHSKLSMLRNATWTLSNFCRGKPQPAFEQTKAALPALERLLHSTDEEVLTDASWALSYLSDGTNEKIQTVIDAGVIPRLVQLLAHPSPSVLIPALRTIGNIVTGDDIQTQAVISSQALPGLLNLLKNTYKKSIKKEACWTISNITAGNTSQIQEVFQAGIIRPLINLLEIGEFEIKKEAVWAISNATSGGNHDQIKFLVSQGCIRPLCDLLPCPDPRVVTVTLEGLENILKVGEAEKNLGNTGNDNLYAQMIEDADGLDKIENLQSHDNNEIYEKAVKILESYWAADDEEEDIGGVDAPENVQSSGFQFGNQSGNAPTGGFNFG
modifications: left off: YFP, end not stated, kept
notes: A. thaliana IMPα6 fused to YFP, FRET acceptor
Consider B3, for which the “average fluorescence lifetime” value in the assay with EIN2C^479–1294 is given as “significant reduction”.

B4: IMPα5: A. thaliana IMPα5 fused to YFP, FRET acceptor (protein)
chain: MSLRPSTKTEIRRIRYKVSVDAEEGRRRREDFLVEIRKSKRNENLMKKRRVKVLPPDYKLISNDPFESLLEIANMITGVFSDDPSLQLEYTTRFRVVLSFDRSPPTDNVIKSGVVPRFVEFLKKDDNPKLQFEAAWALTNIASGASEHTKVVIDHGVVPLFVQLLASPDDDVREQAIWGLGNVAGDSIQCRDFVLNSGAFIPLLHQLNNHATLSILRNATWTLSNFFRGKPSPPFDLVKHVLPVLKRLVYSDDEQVLIDACWALSNLSDASNENIQSVIEAGVVPRLVELLQHASPVVLVPALRCIGNIVSGNSQQTHCVINCGVLPVLADLLTQNHMRGIRREACWTISNITAGLEEQIQSVIDANLIPSLVNLAQHAEFDIKKEAIWAISNASVGGSPNQIKYLVEQNCIKALCDILVCPDLRIILVSLGGLEMILIAGEVDKNLRDVNCYSQMIEDAEGLEKIENLQHHGNNEIYEKAVKILQTYGLVEEDGRLVEEEDEGGDGCSHPEFQFDFSR
modifications: left off: His6, C-terminal, state not stated
notes: A. thaliana IMPα5 fused to YFP, FRET acceptor
As to B4, in the assay on EIN2C^479–1294, the “average fluorescence lifetime” value is on record as “only slightly, but not significantly reduced”. In addition, in the assay with EIN2C^479–1294 (mean, EIN2C^479–1294‐CER donor / IMPα‐YFP acceptor), the FRET efficiency amounted to 1%.
